According to patent publication US20120328623A1 (Kyowa Kirin, published 2012):

Target: T1, GST fusion protein wherein the extracellular domain of mouse erbB3 is fused to GST (mouse, UniProt Q61526 20-641)
T1 construct: also called merbB3-GST; merbB3; not shown: glutathione S-transferase (GST)
Assay: binding ELISA, GST fusion captured by anti-GST
Protocol: anti-Glutathione-Transferase-Schistsoma-japonicum (Goat) (manufactured by Rockland Immunochemicals Inc., ca. No. 16979) (hereinbelow, described as “anti-GST”) prepared at 1 μg/mL by using a 50 mM carbonate buffer (pH 9) (hereinbelow, described as a “coating buffer”) was added to Maxisorp plate (NUNC; ca. No. 442404) at 50 μL/well and immobilized by incubation at 37° C. for an hour (or 4° C., ON).
After the buffer was discarded, a blocking reagent (SuperBlock® Blocking Buffer, manufactured by PIERCE) was added to the respective wells at 250 μL to 300 μL/well, followed by incubation at room temperature for 5 to 10 minutes for blocking After the blocking reagent was discarded, the herbB3-GST fusion protein, the merbB3-GST fusion protein, the hD1/mD234 fusion protein, the hD12/mD34 fusion protein, and the hD123/mD4 fusion protein which were diluted at 5 μg/mL with Tris-buffered saline (hereinbelow, described as an “assay diluent”) containing 10% Block Ace® (manufactured by Dainippon Sumitomo Pharma Co., Ltd.) and 0.1% Tween 20 were added respectively to the plates of the respective antigens at 50 μL/well, and immobilized by incubation at room temperature for an hour.
An absorbance at a wavelength of 450 nm (reference wavelength of 570 nm) was measured using a microplate reader (MTP-300; manufactured by CORONA […] Co., Ltd.).

T1 sequence (Q61526 20-641): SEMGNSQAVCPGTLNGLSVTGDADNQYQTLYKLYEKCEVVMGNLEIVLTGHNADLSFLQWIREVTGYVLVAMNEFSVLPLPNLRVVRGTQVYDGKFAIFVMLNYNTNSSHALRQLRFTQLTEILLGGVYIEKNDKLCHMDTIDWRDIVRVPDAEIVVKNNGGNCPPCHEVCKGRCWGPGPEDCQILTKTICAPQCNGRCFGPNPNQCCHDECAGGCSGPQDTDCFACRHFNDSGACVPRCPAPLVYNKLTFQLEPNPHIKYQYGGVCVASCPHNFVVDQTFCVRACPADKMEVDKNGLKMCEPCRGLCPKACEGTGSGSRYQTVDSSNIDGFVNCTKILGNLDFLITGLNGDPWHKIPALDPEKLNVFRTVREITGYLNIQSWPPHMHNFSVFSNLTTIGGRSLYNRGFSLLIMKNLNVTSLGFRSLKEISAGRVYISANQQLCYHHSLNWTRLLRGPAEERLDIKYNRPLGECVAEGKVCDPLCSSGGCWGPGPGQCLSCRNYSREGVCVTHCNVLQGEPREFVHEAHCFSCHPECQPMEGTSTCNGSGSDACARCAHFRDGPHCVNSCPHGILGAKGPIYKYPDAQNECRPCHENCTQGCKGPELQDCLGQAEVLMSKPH

B1: anti-human erbB3 monoclonal antibody 12511 (antibody, V domains shown)
VH: QIQLQQSGPELVNPGASVKISCKPSGYTFTDYYINWVKQRPGQGLEWIGWIHPGGGYTKYNEKFRGKATVTVDTSANTVYMQLSSLTSDDSAVYFCARRDYGDYGFAYWGQGTLVTVSA
VL: DIVLTQSPASLAVSLGQRATISCRVSESVDSYGNSFMHWYQQKPGQPPKLLIYRASNLESGIPDRFSGSVSRTDFTLTINPVEPDDVATYYCQQTNEDPPTFGGGTKLEIK
binding result: binds
